From the DeepSol protein solubility set

Experiment: soluble on expression in E. coli; label from the status in PepcDB or PDB records

Soluble on expression in E. coli, soluble:
MHHHHHHLEVLFQGPSSTVTIEYFNQKKEMTKTLEEITRDFEKENPKIKVKVVNVPNAGEVLKTRVLAGDVPDVVNIYPQSIELQEWAKAGVFEDLSNKDYLKRVKNGYAEKYAVNEKVYNVPFTANAYGIYYNKDKFEELGLKVPETWDEFEQLVKDIVAKGQTPFGIAGADAWTLNGYNQLAFATATGGGKEANQYLRYSQPNAIKLSDPIMKDDIKVMDILRINGSKQKNWEGAGYTDVIGAFARGDVLMTPNGSWAITAINEQKPNFKIGTFMIPGKEKGQSLTVGAGDLAWSISATTKHPKEANAFVEYMTRPEVMQKYYDVDGSPTAIEGVKQAGEDSPLAGMTEYAFTDRHLVWLQQYWTSEADFHTLTMNYVLTGDKQGMVNDLNAFFNPMKM
MPKIISKRKFNILRKTKEEIFSQIVYTKKRNGLHKAAKEYYFKDKDFTIIEDQQDRPDKPEELDTPDIPKPPKPPKGPDQPEEPGQPGGPDDPNSGNKKMPKPDEFVTHRQLQEFKKDLLVELHEIFPTKPELKRVEEKVDVLFELQKAQGEQIRIQGEQIKELKVEQKAQGETLQLILQTLQKMNDRLDKIEGKMDKMESRMDKMETRLDKLESK
MRGSHHHHHHTDPALRATIWVDADACPNVIKEILYRAAERMQMPLVLVANQSLRVPPSRFIRTLRVAAGFDVADNEIVRQCEAGDLVITADIPLAAEAIEKGAAALNPRGERYTPATIRERLTMRDFMDTLRASGIQTGGPDSLSQRDRQAFAAELEKWWLEVQRSRGGLCGR
MRRVVVTGLGALTPIGVGQEAFHKAQLAGKSGVRPITRFDASALPVRIAAEVDVDPGAYLDRKELRRLDRFVQYALIAAQLALEDAGLKPEDLDPERVGTLVGTGIGGMETWEAQSRVFLERGPNRISPFFIPMMIANMASAHIAMRYGFTGPSSTVVTACATGADALGSALRMIQLGEADLVLAGGTEAAITPMAIGAFAVMRALSTRNEEPEKASRPFTLSRDGFVMGEGAGVLVLEAYEHAKKRGARIYAELVGFGRSADAHHITEPHPEGKGAALAMARALKDAGIAPEQVGYINAHGTSTPVGDRAEVLAIKRVFGDHAKRLMVSSTKSMIGHLLGAAGAVEAIATVQALYHGVIPPTINLEDPDPELDLDFVPEPREAKVDYALSNSFAFGGHNAVLAFKRV
MGSDKIHHHHHHMVYVGTSGFSFEDWKGVVYPEHLKPSQFLKYYWAVLGFRIVELNFTYYTQPSWRSFVQMLRKTPPDFYFTVKTPGSVTHVLWKEGKDPKEDMENFTRQIEPLIEEQRLKMTLAQFPFSFKFSRKNVEYLEKLRESYPYELAVEFRHYSWDREETYEFLRNHGITFVVVDEPKLPGLFPYRPITTTDYAYFRFHGRNERWFEAEGEERYDYLYSEEELKTLFEDVVELSRRVKETYVFFNNCYKGQAAINALQFKKMLEERV

Soluble on expression in E. coli, not soluble:
MRKGNTDLLLFFNGWGMDRRVADWLVSAWPDSAGRDIAVLYDYRNLSIPAWLGEVMAEARAVDLVAWSLGVWAAVNSELEKIDRAVAINGTATPLDAERGIPPEIFAGTLKSWNDANRKRFERRMTGGVPPKIVDATRSDRTSADQQAELLSLGEAVARFPAESTASWKFSKALIGGRDLIFSAENQRRAWSEAGVRVAEIAAMPHFPFTHIAGWGELFT
MKQYGFYVDSSRCSGCKTCQVSCKDNKDLDVGPKLRRVYEYGGGSWVKEGESWHHDTFTYYLSIACNHCDEPVCVSGCPTGAMHKRKEDGLVVVDDSVCVGCRYCEMRCPYGAPQFDTQANVMRKCDGCLDRLENNLRPICVDSCPQRALDFGPVDELRAKYGTENQIAPLPSASFTHPNLIIKPHPKARPTGDTEGAIMNIREVRHA
MSAFDIVLREGTVVDGTGADPFVADVAISGGRIAAIGPNLSRGTTEINASGQIVTPGFVDLHTHYDGQVTWDNRLAPSSYHGVTTAVIGNCGVGFAPCRRDAASRDAMVRLMEGVEDIPHPVLTEGLPWTWETFPDYLDFLASRTYDIDVAAYVPHAPLRVYVMGQRGADREPATQTDIAEMCRLLEQALDRGALGIATSRSLFHRSSDGTAIPTYQAAQAELMAFAEVLRAKGKGVFQIVEDIHVPGASLDNMRELARTSGRPLTFSIGTGNTGPYGYPRLLDELAAANAEGLVMKGQLMPRGIGMILGFELTLNPFYTTSTFARLAPLPLAERLEQLRRPEIRAAILSEPMDPDPALVLGRAVRDFDHMFLLGDDPDYEQPPERSIAGRAREAGITPEELAYDVMTEGESGGLLYLAMANYADGSLDAVGDILSHPDVVLGLGDGGAHVGTICDASYSTFALCHWARDRQRGRKTVADMVHRMTQATARVIGLEDRGELAVGKRADINVIDLAQLALRPPQVCHDLPAGGRRLIQRATGYSLTMLAGEIVLRDDEPTGLLPGRLIRASLEHHHHHH
MSRHPLKIVIAGAGIGGLAAAACLKAAGFEVELYERARELRAVGSALSLMPNALTALERVGVRPDLTRAQAFDSLRFLTRRGRPIRAIDFGGLARQLGQPSLAIHRASLQQALLEQARDCRIELGVSATGYLRHADGEGVTVLCSDGREVHADVLIGADGFNSAIRATMTGPERPTDWHYVIWRATPAFRHPKVTPGYVAHYWGRGQRFGLADIGEGNVYWWGTRNMPAEQAKDWRGGKAGIQRLYAGWADEVQAVIEATPEADISSLPAQDRPFLERWGDGPVTLLGDAAHPMLTSLGQGAAIAIEDAAVLAHCLATIDDPQAALRAYENRRRDRARAMVETSRALSRIEQLEHPLRTVARDLYFRFAPERTFARQNELALTFPGVELEHHHHHH
MSGDDYMGAMALLGIKPDTDPLSIKRAYRRLLSRHHPDKIAGSGANAQQVRVATEKTSELHNAYRVVKARRGFALEHHHHHH
MNEEVVMKFLHTSDWHVGRTLNGWSLLEEQEWAFQQIVDLAISEKVDGVIISGDLYDRAVPPVDAIKLFNKTLARLVLEEQIPVYAISGNHDGAERLHFGRDFFQHQGLHLSTRLEEAFEPIELENCQIFLLPFIDPIDARIYYKDDEGKEIQGIGDALTYILEDMEKAFDPDKAHVLVTHFAVSKKDDSDGQGLRELMLSETSNTVGGLTNVTSDLFKSFDYVALGHIHTRFASPTKRVQYSGSPVAFNVKEAKRKEEKGVYILELDASGDMSQTFHT
MAHHHHHHMNTLGSSGSAGAEAPLVGGPDALTLQTINEQQLIILRQKELVSTLKECVEELGAQLRRAGVKPLEAAQKEDGCKGTLSYVSEMQLRRRVRTLEDENKKLSDLVDELRAEVSAISAQLCAQQLHTQSEKDVWKAKVSSAEAKSVATAHLLEATGKRNQQLVHHLETLRREGEVSAYECTQWRSLATTAVSHLDHANQRYARAQINSIEEDVHRYAVNRLRLVRVAASASLSLDSGTPEETRKIWSRSAQLPKLHPAPQVFQQQQQEPVCSPLHVSYKRPLSQLLPCQPPQPTTSYSLPPPTAEHVNAETHLSPSHCAALAQT
GPGSMWVEAYRAGCAEVSADVREDVSSSGATGELIVRGNTFDNFKNRVTDTDVQAILAALRVCPGMSALYLPYNNITSEGGVLLGKALGHQLDSIITLDVQYNSLGAEAGVAIAQGLQRNDSLCHVTLAGNPLGGCCGAALGEALRQNMNLAVLDLFNTDLGMEALVHICRSLEGNKGLSSLNIGRPLLHGVDELESVVNHLSIALQRNSTLEELHMAYFGLVDDCLQTLVLALCGSAVTTLCIKGNKVSQDAGQLLARLLDRRQDFRNLDVSCNRLRDAGAAALAKGVAHHPQLESLGLESCTISERGLVVLVESLKSCATVRRLTLWGNDVTPAVASSLTATFCDLRELDYIDVGVMEQDGQLVAYRA
MGAVSAFSWASSGRLHALEVFVMKIPKTYDEIMEHFGGLIDEVTAELLESYAKGETVRVSEALAKSGRVAVEGVVLRVFPVRHFSKNGRSGKVGSVVIQDDCTVRVNFWNEAAEIIEAGDIVEGARIKVRGYARGEEIHVNSLSEVEVFVDFVNISELDEKVGERVNVKGFVSGLGEPEKANEIYISDETGRVKVLLENESLYYAVDIGSYVEIYNALAGEDGIYVDRNSRFSVGELEHHHHHH
